What all share (test): SPR, VHH captured by anti-Fc, ECD analyte
Assay [1] has as its target T1, rat pIgR extracellular domain (rat, UniProt P15083 19-643).
T1 construct: extracellular domain
T1 sequence (looked up): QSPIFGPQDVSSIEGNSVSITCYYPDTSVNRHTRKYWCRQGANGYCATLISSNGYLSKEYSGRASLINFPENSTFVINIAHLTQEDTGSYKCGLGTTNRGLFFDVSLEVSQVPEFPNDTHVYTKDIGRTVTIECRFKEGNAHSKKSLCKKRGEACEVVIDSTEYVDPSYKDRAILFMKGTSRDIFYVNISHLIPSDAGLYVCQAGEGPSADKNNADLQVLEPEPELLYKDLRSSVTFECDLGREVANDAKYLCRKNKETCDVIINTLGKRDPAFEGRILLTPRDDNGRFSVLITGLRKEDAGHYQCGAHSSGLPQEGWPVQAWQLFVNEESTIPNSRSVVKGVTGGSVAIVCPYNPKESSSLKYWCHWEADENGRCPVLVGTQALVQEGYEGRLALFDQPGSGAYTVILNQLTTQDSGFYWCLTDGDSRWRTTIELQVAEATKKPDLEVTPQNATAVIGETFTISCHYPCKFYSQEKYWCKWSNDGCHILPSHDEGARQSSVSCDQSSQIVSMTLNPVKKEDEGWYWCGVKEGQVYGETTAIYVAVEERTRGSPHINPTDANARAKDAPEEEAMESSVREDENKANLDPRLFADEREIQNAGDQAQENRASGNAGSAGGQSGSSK
In outline:
(§1)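 Anti-human Fc surface captured VHH at 0.5 ug/ml (~200-300 RU); running buffer HBSP with 100 ug/ml BSA, 30 μL/min. Single-cycle kinetics with ECD injected low to high from 30 nM in 3-fold dilutions, dissociation 30 min. Double-referenced data globally fit to 1:1 Langmuir model for kon, koff, KD.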

Assay [2] has as its target T2, mouse pIgR extracellular domain (ECD) (mouse, UniProt O70570 19-645).
T2 construct: Bought from R&D Systems (Cat 2800-PG-050); also called mpIgR ECD
T2 sequence: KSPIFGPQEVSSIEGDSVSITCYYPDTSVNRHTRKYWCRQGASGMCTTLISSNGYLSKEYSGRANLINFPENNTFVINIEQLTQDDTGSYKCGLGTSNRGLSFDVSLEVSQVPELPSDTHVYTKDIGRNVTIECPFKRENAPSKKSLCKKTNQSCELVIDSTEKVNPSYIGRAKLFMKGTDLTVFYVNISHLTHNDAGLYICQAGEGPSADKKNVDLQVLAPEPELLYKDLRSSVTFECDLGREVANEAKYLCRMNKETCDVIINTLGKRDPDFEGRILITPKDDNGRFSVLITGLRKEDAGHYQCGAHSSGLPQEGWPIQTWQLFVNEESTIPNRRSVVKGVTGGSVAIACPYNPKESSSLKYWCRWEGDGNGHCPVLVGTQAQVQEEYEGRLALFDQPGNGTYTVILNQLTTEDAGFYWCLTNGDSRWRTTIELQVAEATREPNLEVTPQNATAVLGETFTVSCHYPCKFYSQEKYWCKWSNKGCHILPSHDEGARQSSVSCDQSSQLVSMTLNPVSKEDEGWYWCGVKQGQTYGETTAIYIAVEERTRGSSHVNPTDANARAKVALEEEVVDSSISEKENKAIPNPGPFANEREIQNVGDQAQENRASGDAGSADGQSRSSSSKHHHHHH
In outline: as §1

Assay [3] addresses T3, cynomolgus monkey pIgR extracellular domain (cynomolgus monkey, UniProt A0A2K5WMU9 19-638).
T3 construct: extracellular domain
In outline: as §1

The target in assay [4] is T4, human pIgR extracellular domain (ECD) (human, UniProt P01833 19-638).
T4 construct: Bought from R&D Systems (Cat 2717-PG-050); also called hpIgR ECD
T4 sequence (P01833 other isoform, or with tags, fused parts or gaps): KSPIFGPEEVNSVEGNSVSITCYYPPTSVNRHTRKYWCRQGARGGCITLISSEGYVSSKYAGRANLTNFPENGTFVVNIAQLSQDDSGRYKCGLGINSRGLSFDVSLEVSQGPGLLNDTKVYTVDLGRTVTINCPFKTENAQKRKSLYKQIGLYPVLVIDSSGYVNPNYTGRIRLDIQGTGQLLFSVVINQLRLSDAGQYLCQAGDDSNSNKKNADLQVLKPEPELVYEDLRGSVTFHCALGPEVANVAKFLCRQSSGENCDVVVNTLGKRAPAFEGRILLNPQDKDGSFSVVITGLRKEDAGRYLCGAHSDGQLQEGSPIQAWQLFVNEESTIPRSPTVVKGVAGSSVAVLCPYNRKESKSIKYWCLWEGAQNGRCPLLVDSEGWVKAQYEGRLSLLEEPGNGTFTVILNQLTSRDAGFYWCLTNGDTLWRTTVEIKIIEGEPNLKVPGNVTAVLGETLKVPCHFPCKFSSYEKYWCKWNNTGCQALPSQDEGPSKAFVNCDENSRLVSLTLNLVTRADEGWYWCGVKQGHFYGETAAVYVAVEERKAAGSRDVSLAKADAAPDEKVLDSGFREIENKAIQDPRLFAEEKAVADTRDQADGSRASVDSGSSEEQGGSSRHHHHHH
In outline:
as §1

T3 sequence (A0A2K5WMU9 entry or part of it): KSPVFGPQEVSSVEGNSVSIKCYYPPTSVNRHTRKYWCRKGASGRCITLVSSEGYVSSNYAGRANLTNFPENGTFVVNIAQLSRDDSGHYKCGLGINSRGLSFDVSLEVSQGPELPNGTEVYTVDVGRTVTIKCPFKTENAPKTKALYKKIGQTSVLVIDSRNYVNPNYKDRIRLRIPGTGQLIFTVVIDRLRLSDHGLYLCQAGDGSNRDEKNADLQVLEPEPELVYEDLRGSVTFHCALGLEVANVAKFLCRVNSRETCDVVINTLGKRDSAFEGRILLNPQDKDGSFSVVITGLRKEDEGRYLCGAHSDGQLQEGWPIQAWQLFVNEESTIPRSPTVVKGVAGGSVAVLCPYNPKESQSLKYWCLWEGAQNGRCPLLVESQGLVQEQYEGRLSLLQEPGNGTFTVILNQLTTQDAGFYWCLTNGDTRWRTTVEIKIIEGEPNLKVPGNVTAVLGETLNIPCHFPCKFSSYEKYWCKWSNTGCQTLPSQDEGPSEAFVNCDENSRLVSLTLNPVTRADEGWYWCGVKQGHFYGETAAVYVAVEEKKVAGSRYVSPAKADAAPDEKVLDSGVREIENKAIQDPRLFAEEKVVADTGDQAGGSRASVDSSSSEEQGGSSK

B1: 01B11R3LS VHH Mono-Fc (Fc fusion)
chain: EVQLVESGGGVVQAEDSLRLSCAAPGLPFSSSRMGWFRQAPGKEREFVAAIGWSGRSTYRYYGDSVKGRFTVSGDNAKNTLDLQMKGLKPEDTAVYYCAADPDYYGDYRTSGAWRYWGQGTQVTVSSSPAPELLGGPSVFLFPPKPKDTLMISRTPEVTCVVVDVSHEDPEVKFNWYVDGVEVHNAKTKPREEQYNSTYRVVSVLTVLHQDWLNGKEYKCKVSNKALPAPIEKTISKAKGQPREPQVYTKPPSREEMTKNQVSLSCLVKGFYPSDIAVEWESNGQPENNYKTTVPVLDSDGSFRLASYLTVDKSRWQQGNVFSCSVMHEALHNHYTQKSLSLSPGK
In the case of B1, the equilibrium dissociation constant (Kd) in assay [1] was 19.9 nM; in assay [2], 12.8 nM.

B2: 01B03R2LS VHH Mono-Fc (Fc fusion)
chain: EVQLVESGGGLVQAGDSLRLSCAASGRTGSSGAMGWFRQGPGKEREFVAALMWRNTVTYSYYADSVKGRFTISRDNAKNTAYLQMNSLKPEDTAVYYCAADPDTYGDPRNSGAYSYWGQGTLVTVSSSPAPELLGGPSVFLFPPKPKDTLMISRTPEVTCVVVDVSHEDPEVKFNWYVDGVEVHNAKTKPREEQYNSTYRVVSVLTVLHQDWLNGKEYKCKVSNKALPAPIEKTISKAKGQPREPQVYTKPPSREEMTKNQVSLSCLVKGFYPSDIAVEWESNGQPENNYKTTVPVLDSDGSFRLASYLTVDKSRWQQGNVFSCSVMHEALHNHYTQKSLSLSPGK
Regarding B2, the Kd in assay [1] is 11 nM; in assay [2], 6.33 nM.

B3: 01C01R2LS VHH Mono-Fc (Fc fusion)
chain: QVQLVESGGGLQQAGGSLRLSCAASGRTVTVMTVGWFRQAPGKEREFVAAITMYGERTYYADSVKGRFTISRDNAKNTVDLQMNSLKPEDAAVYYCAARTYVSGIYDRFDDYNYWGQGTQVTVSSSPAPELLGGPSVFLFPPKPKDTLMISRTPEVTCVVVDVSHEDPEVKFNWYVDGVEVHNAKTKPREEQYNSTYRVVSVLTVLHQDWLNGKEYKCKVSNKALPAPIEKTISKAKGQPREPQVYTKPPSREEMTKNQVSLSCLVKGFYPSDIAVEWESNGQPENNYKTTVPVLDSDGSFRLASYLTVDKSRWQQGNVFSCSVMHEALHNHYTQKSLSLSPGK
On to B3, for which the Kd in assay [2] was determined as 11.3 nM.

B4: 03G07R3 VHH Mono-Fc (Fc fusion)
chain: EVQLVESGGGLVQAGDSLRLSCAASGRTLSFDTYAMAWFRQAPGKEREFVASIDYNGGSTDYADSVKGRFTVTRDNAKNTVTLRMNSLKPDDTAVYYCASARYYRSGTSFPVNYWGQGTQVTVSSSPAPELLGGPSVFLFPPKPKDTLMISRTPEVTCVVVDVSHEDPEVKFNWYVDGVEVHNAKTKPREEQYNSTYRVVSVLTVLHQDWLNGKEYKCKVSNKALPAPIEKTISKAKGQPREPQVYTKPPSREEMTKNQVSLSCLVKGFYPSDIAVEWESNGQPENNYKTTVPVLDSDGSFRLASYLTVDKSRWQQGNVFSCSVMHEALHNHYTQKSLSLSPGK
Consider B4, for which the values for the Kd in assay [2], in assay [3] and in assay [4] were 5.58 nM, 361 nM and 2.63 nM, respectively.

B5: 02G06R3 VHH Mono-Fc (Fc fusion)
chain: EVQLVESGGGLVQAGGSLRLSCAASGRTFDSYAMGWFRQAPGKEREFVAAISWTGGSTDYADSVKGRFTISRDNAKNTVYLQMDSLKPEDTAVYYCAAEVVGRDVTTMYRVSGLEYEYDYWGQGTQVTVSSSPAPELLGGPSVFLFPPKPKDTLMISRTPEVTCVVVDVSHEDPEVKFNWYVDGVEVHNAKTKPREEQYNSTYRVVSVLTVLHQDWLNGKEYKCKVSNKALPAPIEKTISKAKGQPREPQVYTKPPSREEMTKNQVSLSCLVKGFYPSDIAVEWESNGQPENNYKTTVPVLDSDGSFRLASYLTVDKSRWQQGNVFSCSVMHEALHNHYTQKSLSLSPGK
In the case of B5, the values for the Kd in assay [1] and in assay [2] were 73.5 nM and 32.3 nM, respectively.

B6: 01E10R2 VHH Mono-Fc (Fc fusion)
chain: EVQLVESGGGLVQAGGSLRLSCAASGRTLSVDRMGWFRQVPGKEREFIAARTWSGSSTYIYYADSVKGRFAISRDRAKNTIDLQMNSLKLEDTGAYYCAADVRGGSYDVRRDEGYAYWGQGTLVTVSSSPAPELLGGPSVFLFPPKPKDTLMISRTPEVTCVVVDVSHEDPEVKFNWYVDGVEVHNAKTKPREEQYNSTYRVVSVLTVLHQDWLNGKEYKCKVSNKALPAPIEKTISKAKGQPREPQVYTKPPSREEMTKNQVSLSCLVKGFYPSDIAVEWESNGQPENNYKTTVPVLDSDGSFRLASYLTVDKSRWQQGNVFSCSVMHEALHNHYTQKSLSLSPGK
As to B6, the dissociation constant (Kd) in assay [1] stood at 96.9 nM; in assay [2] it was 61.8 nM.

B7: 01G02R2LS VHH Mono-Fc (Fc fusion)
chain: QVQLVESGGGLVQAGDSLALSCAGSGDTFSNYAMGWFRQAPGKEREFVADISWYGANIGYADSVKGRFTISRDNAKNMVTLRMNSLKPEDTAVYYCAADRNHWPVKGDYWGQGTQVTVSSSPAPELLGGPSVFLFPPKPKDTLMISRTPEVTCVVVDVSHEDPEVKFNWYVDGVEVHNAKTKPREEQYNSTYRVVSVLTVLHQDWLNGKEYKCKVSNKALPAPIEKTISKAKGQPREPQVYTKPPSREEMTKNQVSLSCLVKGFYPSDIAVEWESNGQPENNYKTTVPVLDSDGSFRLASYLTVDKSRWQQGNVFSCSVMHEALHNHYTQKSLSLSPGK
Regarding B7, in assay [2], the affinity, expressed as Kd, was 23.3 nM.

B8: 01H04R3 VHH Mono-Fc (Fc fusion)
chain: EVQLVESGGGLVQPGGSLRLSCAASGRTFSSLTMAWFRRAPGKEREFVAAQKWAGATTYTYYGDSVKGRFTISRDNAKDTVYLQMNSLKPVDTAIYYCAADTSSIVGDPRSPNRYDYWGQGTQVTVSSSPAPELLGGPSVFLFPPKPKDTLMISRTPEVTCVVVDVSHEDPEVKFNWYVDGVEVHNAKTKPREEQYNSTYRVVSVLTVLHQDWLNGKEYKCKVSNKALPAPIEKTISKAKGQPREPQVYTKPPSREEMTKNQVSLSCLVKGFYPSDIAVEWESNGQPENNYKTTVPVLDSDGSFRLASYLTVDKSRWQQGNVFSCSVMHEALHNHYTQKSLSLSPGK
On to B8, for which the figures for the equilibrium dissociation constant (Kd) in assay [1] and in assay [2] were 88.2 nM and 101 nM, respectively.

B9: 01A09R3LS VHH Mono-Fc (Fc fusion)
chain: QVQLVESGGGLVQAGGSLRLSCAASGRSFSSYNMVWLRQAPGKEREVVAAVTWSGGGTSYADSVKGRFTISRDNANVRVYLQMTGLKPEDTAIYYCAATQDWYGGSRAFRAASFHSWGQGTLVTVSSSPAPELLGGPSVFLFPPKPKDTLMISRTPEVTCVVVDVSHEDPEVKFNWYVDGVEVHNAKTKPREEQYNSTYRVVSVLTVLHQDWLNGKEYKCKVSNKALPAPIEKTISKAKGQPREPQVYTKPPSREEMTKNQVSLSCLVKGFYPSDIAVEWESNGQPENNYKTTVPVLDSDGSFRLASYLTVDKSRWQQGNVFSCSVMHEALHNHYTQKSLSLSPGK
As for B9, the values for the Kd in assay [1] and in assay [2] were 22.5 nM and 35.2 nM, respectively.

B10: 02D07R3 VHH Mono-Fc (Fc fusion)
chain: EVQLVESGGGLVQPGGQLRLSCAASGSIASIRDMAWYRQAPGKQRELVAIFARGGTTHYADSVKGRFTISRDNAKNTVYLQVNSLEPEDTAAYYCNAEVATMFQPGFRDYWGRGTQVTVSSSPAPELLGGPSVFLFPPKPKDTLMISRTPEVTCVVVDVSHEDPEVKFNWYVDGVEVHNAKTKPREEQYNSTYRVVSVLTVLHQDWLNGKEYKCKVSNKALPAPIEKTISKAKGQPREPQVYTKPPSREEMTKNQVSLSCLVKGFYPSDIAVEWESNGQPENNYKTTVPVLDSDGSFRLASYLTVDKSRWQQGNVFSCSVMHEALHNHYTQKSLSLSPGK
For B10, the Kd in assay [1] came out at 2.37 nM; in assay [2] it was 4.38 nM.

Usually Kd stands for a measure of binding affinity in units of concentration.

These data come from patent US20220112276A1 (Janssen / Centocor, published 2022).
